Data on 4 molecules can be found in article PMC12310515 (2025).

The labels stand for the following.
B1: KIR2DS1 (SPR protein) (receptor)
chain: HEGVHRKPSLLAHPGRLVKSEETVILQCWSDVMFEHFLLHREGMFNDTLRLIGEHHDGVSKANFSISRMKQDLAGTYRCYGSVTHSPYQLSAPSDPLDIVIIGLYEKPSLSAQPGPTVLAGENVTLSCSSRSSYDMYHLSREGEAHERRLPAGTKVNGTFQANFPLGPATHGGTYRCFGSFRDSPYEWSKSSDPLLVSVTGNPSNSWPSPTEPSSETGNPRHLH
B2: KIR2DL1 (residues 27-221) (domain or fragment)
chain: RKPSLLAHPGRLVKSEETVILQCWSDVMFEHFLLHREGMFNDTLRLIGEHHDGVSKANFSISRMTQDLAGTYRCYGSVTHSPYQVSAPSDPLDIVIIGLYEKPSLSAQLGPTVLAGENVTLSCSSRSSYDMYHLSREGEAHERRLPAGPKVNGTFQADFPLGPATHGGTYRCFGSFHDSPYEWSKSSDPLLVSVT
modifications: N-linked glycan on N67 (N-acetylglucosamine-fucose core seen in the structures)

Where two headings read alike, the source gives them in different places.

Common to all, as to assay: SPR
Background: Surface plasmon resonance follows binding to a sensor surface in real time, without labels.

Experiment [1] deals with T1, KEN-02 (P. falciparum pfKE01).
For experiment [2], the target named is T2, KEN-06 (P. falciparum pfKE01).
For experiment [3], the target named is T3, SEN-01 (P. falciparum pfSN01).
Experiment [4] concerns the target T4, KEN-04 (P. falciparum pfKE01).
In experiment [5] the target is T5, SEN-12 (P. falciparum pfSN01).
Experiment [6] addresses T6, SEN-08 (P. falciparum pfSN01).
Experiment [7] has as its target T1, KEN-02. The source holds these as a separate data set.
Experiment [8] concerns the target T2, KEN-06. This is another data set of the same source.
The target in experiment [9] is T3, SEN-01. The source holds these as a separate data set.
For experiment [10], the target named is T4, KEN-04. This is another data set of the same source.
For experiment [11], the target named is T5, SEN-12. The source holds these as a separate data set.
For experiment [12], the target named is T6, SEN-08. The source holds these as a separate data set.
Experiment [13] has as its target B2.
For the experiment “KIR2DS1 (SPR protein)”, the target named is B1.
For experiment [14], the target named is one of the six Kenyan RIFINs (pfKE01) that bound to LILRB1.

Consider B1, for which the equilibrium dissociation constant (Kd) (as a rule, a measure of binding affinity in units of concentration) in the experiment with KEN-02 [1] amounted to 2600 nM; with KEN-06 [2], 900 nM; in the experiment with SEN-01 [3], 1100 nM; in the experiment with KEN-04 [4], 5400 nM; in the experiment with SEN-12 [5], 500 nM; with SEN-08 [6], 2100 nM.
On to B2, for which the Kd with KEN-02 [7] turned out to be 2200 nM; in the experiment with KEN-06 [8], 400 nM; with SEN-01 [9], 3400 nM; in the experiment with KEN-04 [10] it was 2000 nM; with SEN-12 [11], 400 nM; with SEN-08 [12], 3500 nM.

B3: KEN-01 (mFc-tagged, SPR) (natural protein)
chain: AKGAAAAEAARIPAAIDAVIKGIVTKFGVSTESVQGLKSLFTANTYNDVTKIARAINEQYNPSSCLTGGSGADNSICPWAMENFFAARKIPGFIQREAVSMNDVIEKTVKTIVSDAPKTAETAAKKATEG
B3: the Kd in experiment [13] was 100 nM; in the experiment with KIR2DS1 (SPR protein), 300 nM.

B4: LILRB1 (receptor)
chain: GHLPKPTLWAEPGSVITQGSPVTLRCQGGQETQEYRLYREKKTALWITRIPQELVKKGQFPIPSITWEHAGRYRCYYGSDTAGRSESSDPLELVVTGAYIKPTLSAQPSPVVNSGGNVILQCDSQVAFDGFSLCKEGEDEHPQCLNSQPHARGSSRAIFSVGPVSPSRRWWYRCYAYDSNSPYEWSLPSDLLELLVLGVSKKPSLSVQPGPIVAPEETLTLQCGSDAGYNRFVLYKDGERDFLQLAGAQPQAGLSQANFTLGPVSRSYGGQYRCYGAHNLSSEWSAPSDPLDILIAGQFYDRVSLSVQPGPTVASGENVTLLCQSQGWMQTFLLTKEGAADDPWRLRSTYQSQKYQAEFPMGPVTSAHAGTYRCYGSQSSKPYLLTHPSDPLELVVSGPSGGPSSPTTGPTSTSGPEDQPLTPTGSDPQSGLGRHLGVVIGILVAVILLLLLLLLLFLILRHRRQGKHWTSTQRKADFQHPAGAVGPEPTDRGLQWRSSPAADAQEENLYAAVKHTQPEDGVEMDTRSPHDEDPQAVTYAEVKHSRPRREMASPPSPLSGEFLDTKDRQAEEDRQMDTEAAASEAPQDVTYAQLHSLTLRREATEPPPSQEGPSPAVPSIYATLAIH
For B4, the Kd in experiment [14] came out at 2600 nM; with SEN-08 [12] it was 5500 nM.
